Test results reported in PMC8062024.
Where two headings read alike, the source gives them in different places.

| Substance | enzymatic_activity (N-glycosylation at N79) | expression_or_secretion (N-glycosylation at N79) | enzymatic_activity (N-glycosylation at N170) | expression_or_secretion (N-glycosylation at N170) | enzymatic_activity (N-glycosylation at N424) | expression_or_secretion (N-glycosylation at N424) |
| --- | --- | --- | --- | --- | --- | --- |
| PmCOX (Penaeus monodon cyclooxygenase): N79Q/N170Q/N424Q triple mutant | abolishes, secreted PGE2 2.23 nM vs 7.40 nM wild type (empty vector 2.68 nM) | decreases | abolishes, secreted PGE2 2.23 nM vs 7.40 nM wild type (empty vector 2.68 nM) | decreases | abolishes, secreted PGE2 2.23 nM vs 7.40 nM wild type (empty vector 2.68 nM) | decreases |
| PmCOX (Penaeus monodon cyclooxygenase): N170Q | – | – | abolishes, secreted PGE2 2.45 nM vs 7.40 nM wild type (empty vector 2.68 nM) | – | – | – |
| PmCOX (Penaeus monodon cyclooxygenase): N79Q | no change, secreted PGE2 8.65 nM vs 7.40 nM wild type (40 uM ARA) | no change | – | – | – | – |
| PmCOX (Penaeus monodon cyclooxygenase): N424Q | – | – | – | – | abolishes, secreted PGE2 2.79 nM vs 7.40 nM wild type (empty vector 2.68 nM) | – |
